The values that follow come from paper PMC7307210, “Small sequence variations between two mammalian paralogs of the small GTPase SAR1 underlie functional differences in coat protein complex II assembly” (The Journal of Biological Chemistry, 2020).

This data set deals with the molecule itself. In words: liposome aggregation assay (nanoparticle tracking); 1 μg SAR1 with 100-nm liposomes and GMP-PNP in HKM buffer, 3 h at 37 °C; particle number and size by NanoSight; self-association on a membrane surface.

B1: SAR1A (natural protein)
chain: not shown
notes: human SAR1A, full-length (198 residues), with the N-terminal amphipathic helix; also called Secretion-associated Ras-related GTPase 1 A; source: E. coli, purified as GST fusion (GSH-agarose), eluted by thrombin cleavage
For B1, the binding result was “binds”.

B2: SAR1B (natural protein)
chain: not shown
notes: human SAR1B, full-length (198 residues), with the N-terminal amphipathic helix; also called Secretion-associated Ras-related GTPase 1 B; source: E. coli, purified as GST fusion (GSH-agarose), eluted by thrombin cleavage
For B2, the binding result was “binds”.
